Numbering of substitutions follows the chain as printed.
Experiments:
[1] = target: T1, ADAM9 on human tumor cells (LS174T, HepG2, Calu-3, Colo205) (human, UniProt Q13443 29-819); test: cell-based or functional assay
T1 sequence (looked up): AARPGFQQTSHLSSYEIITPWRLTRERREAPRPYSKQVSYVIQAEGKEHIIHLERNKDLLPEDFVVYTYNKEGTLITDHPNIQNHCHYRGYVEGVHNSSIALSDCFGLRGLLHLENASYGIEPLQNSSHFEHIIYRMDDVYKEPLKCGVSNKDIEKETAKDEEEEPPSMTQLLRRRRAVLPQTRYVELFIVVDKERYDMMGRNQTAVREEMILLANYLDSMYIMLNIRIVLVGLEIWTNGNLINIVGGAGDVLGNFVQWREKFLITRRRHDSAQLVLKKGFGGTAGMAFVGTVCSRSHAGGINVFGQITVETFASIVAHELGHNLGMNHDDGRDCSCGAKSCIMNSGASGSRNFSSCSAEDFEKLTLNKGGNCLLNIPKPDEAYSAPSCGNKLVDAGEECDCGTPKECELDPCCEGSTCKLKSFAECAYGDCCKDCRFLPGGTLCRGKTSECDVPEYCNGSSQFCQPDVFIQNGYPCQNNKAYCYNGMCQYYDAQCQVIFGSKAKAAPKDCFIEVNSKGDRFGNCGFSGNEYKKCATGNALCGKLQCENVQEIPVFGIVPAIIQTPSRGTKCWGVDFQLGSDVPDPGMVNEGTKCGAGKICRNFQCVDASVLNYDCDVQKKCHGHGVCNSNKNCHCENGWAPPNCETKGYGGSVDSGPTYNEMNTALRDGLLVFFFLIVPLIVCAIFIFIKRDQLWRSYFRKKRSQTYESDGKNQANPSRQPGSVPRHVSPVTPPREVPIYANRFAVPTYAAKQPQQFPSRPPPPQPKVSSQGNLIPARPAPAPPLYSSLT

[2] = target: T2, Human ADAM9 protein (ACROBiosystems, Cat. No. AD9-H52H7) (human, UniProt Q13443 29-697); test: indirect ELISA, human ADAM9-His coated at 1 ug/mL
T2 construct: Bought protein; also called Human ADAM-His protein; human ADAM9 antigen; not shown: His tag
T2 sequence (looked up): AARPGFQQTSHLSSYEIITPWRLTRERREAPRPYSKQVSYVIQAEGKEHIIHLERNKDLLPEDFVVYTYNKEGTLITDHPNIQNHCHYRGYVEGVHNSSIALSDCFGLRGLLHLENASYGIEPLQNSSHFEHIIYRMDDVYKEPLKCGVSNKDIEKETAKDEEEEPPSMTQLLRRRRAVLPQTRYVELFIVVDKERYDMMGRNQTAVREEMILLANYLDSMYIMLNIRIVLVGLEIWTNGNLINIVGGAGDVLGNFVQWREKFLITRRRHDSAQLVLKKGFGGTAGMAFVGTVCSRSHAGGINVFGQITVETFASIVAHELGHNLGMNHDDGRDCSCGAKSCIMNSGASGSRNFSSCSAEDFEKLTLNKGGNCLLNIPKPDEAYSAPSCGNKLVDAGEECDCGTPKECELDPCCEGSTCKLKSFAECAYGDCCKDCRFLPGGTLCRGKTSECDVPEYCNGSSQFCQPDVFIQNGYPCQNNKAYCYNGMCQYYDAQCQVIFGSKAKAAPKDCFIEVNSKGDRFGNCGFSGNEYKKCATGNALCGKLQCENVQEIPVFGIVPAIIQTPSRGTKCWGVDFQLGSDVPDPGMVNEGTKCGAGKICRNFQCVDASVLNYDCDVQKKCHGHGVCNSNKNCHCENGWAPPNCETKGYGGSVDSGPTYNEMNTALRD
Method: The plate was washed three times with PBST (PBS (pH 7.4) containing 0.05% Tween-20), followed by addition of 200 μL/well of blocking buffer containing 1% bovine serum albumin (BSA) diluted in PBST, and incubated at 37° C. for 1 hour for blocking. After blocking, the blocking buffer was discarded, and the plate was washed once with PBST buffer. The test antibody was diluted in PBST containing 1% BSA with a 3-fold serial dilution starting at 15 μg/mL across 11 doses, and added to the ELISA plate at 100 μL/well, followed by incubation at 37° C. for 1 hour. After incubation, the plate was washed three times with PBST, followed by addition of 100 μL/well of HRP-labeled goat anti-human secondary antibody (Rockland, Cat. No. 609-103-123) diluted in PBST containing 1% BSA, and incubated at room temperature for 45 minutes. The plate was washed six times with PBST, followed by addition of 100 μL/well of TMB chromogenic substrate (Suzhou Yacoo Chemical Reagent Co., Ltd., Cat. No. S0025), and incubated at room temperature in the dark for 10 minutes. The reaction was terminated by adding 50 μL/well of 1 M HCl, and the absorbance was measured at 450 nm using a microplate reader (Thermo, Ascent) for data analysis.

[3] = target: T2, Human ADAM9 protein (ACROBiosystems, …); test: SPR (Biacore 8K), antibody captured by anti-human Fc on CM5, ADAM9 as analyte
Method: Chip preparation: The mouse anti-human IgG (Fc) antibody (Cat. No. 29234600, Cytiva) was diluted to 25 μg/mL in immobilization buffer (10 mM sodium acetate, pH 5.0), specifically by adding 950 μL of the immobilization buffer to 50 μL of the mouse anti-human IgG (Fc) antibody. The dilution was used for immobilization in eight channels. First, the surface of the CM5 chip was activated with 400 mM EDC and 100 mM NHS at a flow rate of 10 μL/min for 420 seconds. Then, 25 μg/mL of the mouse anti-human IgG (Fc) antibody was injected into the test channels at a flow rate of 10 μL/min for approximately 360 seconds, with the level of immobilization at approximately 7000 to 14000 RU. Finally, the chip was blocked with 1 M ethanolamine at a flow rate of 10 μL/min for 420 seconds. The reference channels underwent the same procedures as the test channels.
Ligand capture: Antibodies Ab10, Ab15, Ab16, and hMAB-A (2I.2) were diluted to 4 μg/mL in running buffer (containing 10 mM N-(2-hydroxyethyl)piperazine-N-2-ethanesulfonic acid (HEPES), 150 mM sodium chloride (NaCl), 3 mM ethylenediaminetetraacetic acid (EDTA), 0.005% Tween-20, pH adjusted to 7.4) and injected into the test channels for human IgG (Fc) capture at a flow rate of 10 μL/min at approximately 200 RU. No ligand capture was performed in the reference channels.
Analyte multi-cycle analysis: Human and cynomolgus ADAM9 proteins (human ADAM9 protein purchased from ACRO, Cat. No. AD9-H52H7; monkey ADAM9 protein purchased from ACRO, Cat. No. AD9-C52H7) were diluted 2-fold in running buffer (Table 10). The diluted human or cynomolgus ADAM9 protein was sequentially injected into the test channels and the reference channels at a flow rate of 30 μL/min, with corresponding association and dissociation times. Both the association and dissociation steps were performed in the running buffer. After each concentration analysis, the chip was regenerated with 3 M magnesium chloride at a flow rate of 20 μL/min for 30 seconds to wash away the ligand and any undissociated analyte. For the next concentration analysis, the test channels required re-capture of the same amount of ligand.

[4] = target: T1, ADAM9 on human tumor cells (LS174T, …); test: cell-based or functional assay; remark: listed apart in the source

B1: Ab10 (antibody, human IgG1, kappa, V domains shown)
VH: QVQLQESGAELKRPGSSVKVSCKASGFTFPLYWMNWVRQRPGRGLEWMGRIIPIFGHTKYNEKFKDRATLTADESSSTAYMELSSLRSDDSAVYYCARGGYYYYPREGFLDYWGQGTSVTVSS
VL: DIVMTQSPASLSVSPGERASISCRSSQSVDYSGDSYMNWYQQKPGQSPRLLIYAASDRESGVPARFSGSKSGTDFTLKINRVEEEDAGTYYCQQSREDPFTFGQGTRVEIKR
notes: also called Ab10-V (variable regions)
[1]
  EC50 for internalization: 0.16 nM
  Maximum internalization rate (%): 81.3%
[2]
  EC50: 0.059 nM
  Top (OD450): 3.4 OD450
[3]
  Kd: 17.5 nM
  koff: 0.00255 s⁻¹
  kon: 146000 M⁻¹ s⁻¹

B2: Ab15-X2 (antibody, human IgG1, kappa, V domains shown)
VH: B1 VH with E6Q, S7P, R13K, S16A, M48I, L70M, R87T, D89E
VL: B1 VL with A9D, S20T, S22N, A64D, K70G, N80S, R81N, G88A
modifications: linker-payload X2 (camptothecin type) conjugated after TCEP reduction; DAR p=7.8 per antibody; sites not stated
[4]
  IC50 (nM), proliferation inhibition of Colo205 cells (CTG, 6 days): 28.5 nM
  IC50 (nM), proliferation inhibition of LS174T cells (CTG, 6 days): 11.6 nM

B3: Ab1 (antibody, human IgG1, kappa, V domains shown)
VH: B1 VH with L11V, R43Q, K59D, L70I, A72R, S77N, S85R, D89E
VL: B1 VL with A64D, K70G, N80S, R107K, E109D
notes: also called Ab01; Ab1-V (variable regions)
[2]
  EC50: 0.052 nM
  Top (OD450): 3.12 OD450

B4: Ab16-X1 (antibody, human IgG1, kappa, V domains shown)
VH: QVQLQQPGTEVVKPGASVKLSCKASGFTFPLYWMHWVRQRPGRGLEWIGRIIPIFGHTKYNEKFKNKATLTADESSSTAYMELRSLTSDDSAVYYCARGGYYYYPREGFLDYWGQGTSVTVSS
VL: B1 VL with A64D, K70G, N80S, R107K, E109D
modifications: linker-payload X1 (camptothecin type) conjugated after TCEP reduction; DAR p=7.8 per antibody; sites not stated
[4]
  IC50 (nM), proliferation inhibition of Calu-3 cells (CTG, 6 days): 8.6 nM

B5: Ab4 (antibody, human IgG1, kappa, V domains shown)
VH: B1 VH with L11V, L70M, A72R, E74K, R87T
VL: DIVMTQSPSSLSVSPGERATINCRSSQSVDYSGDSYMNWYQQKPGQAPRLLIYAASDLESGVPDRFSGSGSGTDFTLNINGVEEEDAATYYCQQSREDPFTFGQGTKVEIKR
notes: also called Ab04; Ab4-V (variable regions)
[2]
  EC50: 0.055 nM
  Top (OD450): 3.06 OD450

B6: Ab16-X2 (antibody, human IgG1, kappa, V domains shown)
VH: B4 VH
VL: B1 VL with A64D, K70G, N80S, R107K, E109D
modifications: linker-payload X2 (camptothecin type) conjugated after TCEP reduction; DAR p=7.9 per antibody; sites not stated
[4]
  IC50 (nM), proliferation inhibition of Calu-3 cells (CTG, 6 days): 3.83 nM
  IC50 (nM), proliferation inhibition of Colo205 cells (CTG, 6 days): 29.8 nM
  IC50 (nM), proliferation inhibition of LS174T cells (CTG, 6 days): 8.97 nM

B7: Ab7 (antibody, human IgG1, kappa, V domains shown)
VH: B1 VH with L11V, R43Q, K59D, L70I, A72R, S77N, S85R, D89E
VL: B1 VL with S22N, S26D, Q46K, A64D, K70G, K78N, R81S, E109D
notes: also called Ab07; Ab7-V (variable regions)
[2]
  EC50: 0.06 nM
  Top (OD450): 3.31 OD450

Source: patent US20260242515A1 (DUALITY BIOLOGICS SHANGHAI, published 2026)
